Tests used:
AAPF (peptide substrate) = system: T1, AAPF (peptide substrate)
T1 sequence: AAPF

AEPF-pNA = system: T2, AEPF-pNA
T2 sequence: AEPFNA

## GST-Pin1^H59A
AAPF (peptide substrate)
  PPIase activity: The PPIase activity of Pin1^H59A was barely detectable against either peptide substrate
AEPF-pNA
  PPIase activity: The PPIase activity of Pin1^H59A was barely detectable against either peptide substrate

Source: patent publication US6462173B1, “Inhibitors of phosphoserine and phosphothreonine-proline-specific isomerases” (Max-Planck-Gesellschaft zur Forderung der, priority 1997, dated 2002)
